According to patent US20180312587A1 (ADURO BIOTECH HOLDINGS EUROPE B V, published 2018):

T1: hSIRPαV4 (NA11832_V4) (human, UniProt P78324 31-504)
T1 construct: also called human SIRPαV4
T1 chain: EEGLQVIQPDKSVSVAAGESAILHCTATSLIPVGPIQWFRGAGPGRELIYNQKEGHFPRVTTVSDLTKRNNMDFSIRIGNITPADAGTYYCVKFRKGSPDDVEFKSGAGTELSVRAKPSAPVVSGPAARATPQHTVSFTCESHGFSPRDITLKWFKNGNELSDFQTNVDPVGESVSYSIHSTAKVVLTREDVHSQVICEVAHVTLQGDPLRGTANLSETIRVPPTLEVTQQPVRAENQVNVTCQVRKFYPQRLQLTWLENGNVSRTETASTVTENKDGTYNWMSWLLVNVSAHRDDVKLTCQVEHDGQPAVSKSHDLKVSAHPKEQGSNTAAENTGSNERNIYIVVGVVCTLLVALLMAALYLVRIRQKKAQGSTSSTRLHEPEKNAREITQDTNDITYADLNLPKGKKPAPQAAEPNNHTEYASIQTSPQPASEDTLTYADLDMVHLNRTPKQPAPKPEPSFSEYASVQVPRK

B1: hSIRPα.50A (antibody, V domains shown)
VH: QVQLQQSGPELVKPGASVRISCKASGFTFTNYYIHWVKQRPGQGLEWIGWIYPGNVNTKYNEKFKAKATLTADKSSTTAYMQLSSLASEDSAVYFCARPTIIATDFDVWGAGTTVTVSS
VL: DIVMTQSHKFMSTSVGDRVNITCKASQGVGTAVGWYQQKPGQSPRLLIYWASTRHTGVPDRFTGSGSGTDFSLAISNVQSEDLADYFCQQYSTYPFTFGGGTNLEIK
notes: light chain constant domain not tied; also called mouse hSIRPα.50A; hSIRPα.50A.mIgG1
B2: hSIRPα.40A (antibody, mouse IgG1, kappa, V domains shown)
VH: EVQFQQSGTVLARPGTSVKMSCKASGSTFTSYWMHWVKQGPGQGLQWIGAIYPVNNDTTYNQKFKGKAELTVVTSTSTAYMEVSSLTNEDSAVYYCTRSFYYSLDAAWFVYWGQGTLVTVSA
VL: DIQMTQSPSSLSASLGERVSLTCRASQDIGSRLNWLQQEPDGTIKRLIYATSSLDSGVPKRFSGSRSGSDYSLTISGLESEDFVDYYCLQYASSPFTFGGGTKLEINR
notes: mouse antibody, full chains without signal peptide; also called mouse hSIRPα.40A

Tests used:
hSIRPαV3 (NA07056_V3) = target: T2, hSIRPαV3 (NA07056_V3) (human, UniProt P78324 31-504); assay: CELISA, CHO-K1 transfectants
T2 construct: also called human SIRPαV3
Procedure: (§1) The binding specificity of antibodies hSIRPα.40A and hSIRPα.50A to hSIRPα were compared in a CELISA format. In short, CHO-K1 cells were transiently transfected with hSIRPαV1, hSIRPαV2, hSIRPβ1, hSIRPβL, and hSIRPγ cDNAs. Subsequently, hSIRPα binding was assessed by CELISA using CHO-K1.hSIRPαV1, CHO-K1.hSIRPαV2, CHO-K1.hSIRPβ1, CHO-K1.hSIRPβL, and CHO-K1.hSIRPγ cells. Detection of bound antibody was done with goat-anti-mouse IgG-HRP (Southern Biotech).
(§2) In addition, the specificity of hSIRPα.40A for all known of hSIRPα alleles (allelic variants as described by Takenaka et al., Nat Immunol. 8:1313-1323 (2007) was further investigated by CELISA using the same strategy as above. To this end, hSIRPα.40A binding was assessed using CHO-K1 cells that were transiently transfected with cDNAs encoding full length hSIRPαV1, hSIRPαV2, hSIRPαV3 (NA07056_V3) (SEQ ID NO: 44), hSIRPαV4 (NA11832_V4) (SEQ ID NO: 46), hSIRPαV5 (NA18502_V5) (SEQ ID NO: 48), hSIRPαV6 (NA18507_V6) (SEQ ID NO: 50), hSIRPαV8 (NA18570_V8) (SEQ ID NO: 52), and hSIRPαV9 (NA18943_V9) (SEQ ID NO: 54).

human SIRPα variant 2 = target: T3, human SIRPα variant 2 (human, UniProt P78324 31-504); assay: CELISA, CHO-K1 transfectants
T3 construct: full length ORF on transfected CHO-K1 cells; also called hSIRPαV2; SIRPαV2
Procedure: as §1, §2

hSIRPαV8 (NA18570_V8) = target: T4, hSIRPαV8 (NA18570_V8) (human, UniProt P78324 31-504); assay: CELISA, CHO-K1 transfectants
T4 construct: also called human SIRPαV8
Procedure: as §1, §2

human SIRPα variant 1 [1] = target: T5, human SIRPα variant 1 (human, UniProt P78324 31-504); assay: CELISA, CHO-K1 transfectants
T5 construct: full length ORF on transfected CHO-K1 or HEK293 cells; entry includes the signal peptide; also called hSIRPαV1; SIRPαV1
Procedure: as §1, §2

hSIRPαV6 (NA18507_V6) = target: T6, hSIRPαV6 (NA18507_V6) (human, UniProt P78324 31-504); assay: CELISA, CHO-K1 transfectants
T6 construct: also called human SIRPαV6
Procedure: as §1, §2

hSIRPαV9 (NA18943_V9) = target: T7, hSIRPαV9 (NA18943_V9) (human, UniProt P78324 31-504); assay: CELISA, CHO-K1 transfectants
T7 construct: also called human SIRPαV9
Procedure: as §1, §2

hSIRPαV4 (NA11832_V4) = target: T1, hSIRPαV4 (NA11832_V4); assay: CELISA, CHO-K1 transfectants
Procedure: as §1, §2

hSIRPαV5 (NA18502_V5) = target: T8, hSIRPαV5 (NA18502_V5) (human, UniProt P78324 31-504); assay: CELISA, CHO-K1 transfectants
T8 construct: also called human SIRPαV5
Procedure: as §1, §2

human SIRPα variant 1 [2] = target: T5, human SIRPα variant 1; assay: flow cytometry, blockade of DyLight488-hCD47/Fc binding to U-937 cells
How it was run: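 THP-1 or U-937 monocyte cells were placed in 96-well round-bottom plates and incubated at 4 °C for 45 minutes in PBS/1% BSA containing FcR Blocking Reagent and a dilution series of anti-SIRPα antibody. After a further wash, cells were resuspended with 0.1 μg/mL DAPI, read by flow cytometry and analyzed in FlowJo. IC50 is defined as the antibody concentration that gives half-maximal inhibition of CD47/Fc binding.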
Target sequence in this assay (P78324 31-504 limits assumed, change not shown): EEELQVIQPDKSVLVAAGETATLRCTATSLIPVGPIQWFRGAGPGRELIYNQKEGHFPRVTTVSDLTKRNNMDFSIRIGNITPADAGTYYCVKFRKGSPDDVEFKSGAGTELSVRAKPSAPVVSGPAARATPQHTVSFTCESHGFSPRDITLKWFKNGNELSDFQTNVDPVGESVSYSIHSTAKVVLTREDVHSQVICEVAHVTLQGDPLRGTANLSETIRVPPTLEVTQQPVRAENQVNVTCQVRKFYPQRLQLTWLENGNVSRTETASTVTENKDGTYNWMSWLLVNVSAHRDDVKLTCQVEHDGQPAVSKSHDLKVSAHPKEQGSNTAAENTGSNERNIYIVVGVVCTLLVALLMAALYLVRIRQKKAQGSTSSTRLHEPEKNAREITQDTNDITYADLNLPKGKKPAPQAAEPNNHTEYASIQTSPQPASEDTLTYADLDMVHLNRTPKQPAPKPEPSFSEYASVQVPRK

human SIRPγ = target: T9, human SIRPγ (human, UniProt Q9P1W8 29-387); assay: CELISA, CHO-K1 transfectants; average of two experiments
T9 construct: on transfected CHO-K1 cells; also called hSIRPγ
Procedure: as §1

T9 sequence (Q9P1W8 29-387 limits assumed): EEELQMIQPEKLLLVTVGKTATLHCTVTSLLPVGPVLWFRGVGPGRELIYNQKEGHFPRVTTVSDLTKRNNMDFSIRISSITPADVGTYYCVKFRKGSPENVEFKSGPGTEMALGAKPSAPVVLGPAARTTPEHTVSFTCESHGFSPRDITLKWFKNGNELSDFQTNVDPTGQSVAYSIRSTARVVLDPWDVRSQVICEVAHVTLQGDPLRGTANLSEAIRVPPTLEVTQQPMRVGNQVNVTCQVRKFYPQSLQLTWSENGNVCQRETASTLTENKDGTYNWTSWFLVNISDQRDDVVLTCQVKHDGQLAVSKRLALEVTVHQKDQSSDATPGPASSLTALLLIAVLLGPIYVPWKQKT

Binder | EC50 (hSIRPαV3 (NA07056_V3)) [nM] | EC50 (human SIRPα variant 2) [nM] | EC50 (hSIRPαV8 (NA18570_V8)) [nM] | EC50 (human SIRPα variant 1 [1]) [nM] | EC50 (hSIRPαV6 (NA18507_V6)) [nM] | EC50 (hSIRPαV9 (NA18943_V9)) [nM] | EC50 (hSIRPαV4 (NA11832_V4)) [nM] | EC50 (hSIRPαV5 (NA18502_V5)) [nM] | IC50 (human SIRPα variant 1 [2]) [nM] | EC50 (human SIRPγ) [nM]
B1 | 1.77 | 1.07 | 1.51 | 1.69 | 2.22 | 1.37 | 1.3 | 1.26 | 19.5 | 1.99
B2 | 0.107 | 0.089 | 0.089 | 0.134 | 0.136 | 0.115 | 0.1 | 0.115 | 1.34 | 0.099
